Measurements reported in patent US20260356982 (published 2026).
Positions count from the first letter of the chain named. Blank lines part the entries; values can stand above or below the binder they belong to.

Assays:
FLAG tag [1] = biological target: T1, FLAG tag; test: SPR bivalent
T1 chain: DYKDDDDK

FLAG tag [2] = biological target: T1, FLAG tag; test: SPR

Kd (FLAG tag [1]): 0.96 nM
B1: Parental (mouse VH/VL, human constant regions) (antibody, V domains shown)
VH: QVQLQQSAGELARPGASVKMSCKASGYSFTTYTIHWVKQRPGQGLEWIGYINPSSGYAAYNQNFKDETTLTADKSSSTAYMQLSSLTSEDSAVYYCAREKFYGYDYWGQGTTLTVSS
VL: DVLMTQLPLSLPVSLGDQASISCRSSQSIVHRNGNTYLEWYLLKPGQSPKLLIYKVSNRFSGVPDRFSGSGSGTDFTLKISRVEAEDLGVYYCFQGSHVPYTFGGGTKLEIK

Kd (FLAG tag [2]): 15 nM
B2: V7 scFv (antibody, V domains shown)
VH: QVQLVQSGAEVKKPGASVKVSCKASGYSFTTYTMHWVRQAPGQGLEWMGYINPSSGYAAYNQKFQGRVTMTADKSTSTAYMELSSLRSEDTAVYYCAREKFYGYDYWGQGTTVTVSS
VL: DVVMTQSPDSLAVSLGERATINCKSSQSIVHRNGNTYLEWYQLKPGQPPKLLIYKVSNRFSGVPDRFSGSGSGTDFTLTISSLQAEDVAVYYCFQGSHVPYTFGGGTKLEIK

Kd (FLAG tag [1]): 1 nM
B3: V3 IgG (antibody, V domains shown)
VH: B2 VH with M34I, M48I, M70L
VL: B2 VL

Kd (FLAG tag [1]): 1.3 nM
B4: V7 IgG (antibody, V domains shown)
VH: B2 VH
VL: B2 VL

Kd (FLAG tag [2]): 19 nM
B5: V3 scFv (antibody, V domains shown)
VH: B2 VH with M34I, M48I, M70L
VL: B2 VL

Kd (FLAG tag [2]): 22 nM
B6: V4 scFv (antibody, V domains shown)
VH: B2 VH with M34I, M48I, M70L
VL: B2 VL with L43Q

Kd (FLAG tag [1]): 0.91 nM
B7: V4 IgG (antibody, V domains shown)
VH: B2 VH with M34I, M48I, M70L
VL: B2 VL with L43Q
